{"source": "patent US20260102461A1", "binders": {"B1": {"name": "S068 (designed binder)", "chain": "GDTRPRFLWQLKFECHFFNGTERVRLLERCIYNQEESVRFDSDVGEYRAVTELGRPDAEYWNSQKDLLEQRRAAVDTYCRHNYGVGESFTVQRRVEPKVTVYPSKTQPLQHHNLLVCSVSGFYPGSIEVRWFRNGQEEKAGVVSTGLIQNGDWTFQTLVMLETVPRSGEVYTCQVEHPSVTSPLTVEWRASGGGGSGGGGSGGGGIKEEHVIIQAEFYLNPDQSGEFMFDFDGDEIFHVDMAKKETVWRLEEFGRFASFEAQGALANIAVDKANLEIMTKRSNYTPITNVPPEVTVLTNSPVELREPNVLICFIDKFTPPVVNVTWLRNGKPVTTGVSETVFLPREDHLFRKFHYLPFLPSTEDVYDCRVEHWGLDEPLLKHWEFDAPSGGSHHHHHHLE"}}, "molecular_target": "TRPV1 disordered region polypeptide (UniProt Q8NER1)", "assay": "modified sandwich ELISA, fluorescence grade (key: 50000 < x < 100000, Weak binding)", "data": [{"binder": "B1", "values": [{"measurement": "fluorescent signal (fluorescentsignal)", "result": "50000 to 100000"}]}]}
